Key:
[1] = target: T1, SARS-CoV-2 S蛋白(ECD) (购自金斯瑞, Z03481) (SARS-CoV-2, UniProt P0DTC2 14-1213); assay: ELISA, S protein (ECD) coated at 2 μg/ml, antibody titrated from 10 μg/mL
T1 construct: extracellular domain

[2] = target: T1, SARS-CoV-2 S蛋白(ECD) (购自金斯瑞, Z03481)
[3] = target: T2, SARS-CoV-2 RBD结构域蛋白 (序列来自NC_045512.2, 自行表达) (SARS-CoV-2, UniProt P0DTC2 319-541); assay: ELISA, RBD domain protein coated at 2 μg/ml, antibody titrated from 10 μg/mL
T2 construct: domain: RBD

[4] = target: SARS-CoV-2 (中国新型冠状病毒, MT226610) live virus, spike glycoprotein (SARS-CoV-2); assay: cell-based or functional assay

B1: 抗体nCoV617 (anti-coronavirus spike glycoprotein human monoclonal antibody) (antibody, V domains shown)
VH: QVQLVESGGGVVQPGRSLRLSCAASGFTFSSYAMHWVRQAPGKGLEWVALISYDGSNKYYADSVKGRFTISRDNSKNTLYLQMNSLRAEDTAVYYCARGLGLRFLEWPISSYWGQGTLVTVSS
VL: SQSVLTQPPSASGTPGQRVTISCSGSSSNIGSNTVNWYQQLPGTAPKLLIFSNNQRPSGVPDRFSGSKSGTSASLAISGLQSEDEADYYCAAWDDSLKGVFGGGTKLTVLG
notes: also called 抗S蛋白抗体; 抗冠状病毒刺突糖蛋白单克隆抗体
Work on B1 yielded an EC50 [1] of 2 ng/mL, a Kd [2] of 8.02 nM and an EC50 [3] of 3 ng/mL. For the same binder, the “IC50 (neutralisation of live virus on Vero E6 cells, cytopathic effect)” value [4] was 2.3 ng/mL.
